Data published in article PMC4312765.

Target: Dpy30 C-terminal domain (human), Q9C005
Experiment: ITC; Dpy30FL or Dpy30C with synthetic DBM peptides; conditions not shown

Sequence of Dpy30 C-terminal domain (human), Q9C005 (Q9C005 45-99): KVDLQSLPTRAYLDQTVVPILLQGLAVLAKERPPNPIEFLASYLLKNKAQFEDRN

## DTLYKEQIAEDIVWDIIDELEQIALQQ (modifications not checked) [Bre2 Dpy30-binding motif peptide]
  stoichiometry N: 0.5
